Measurements as given in US20240192215A1 (E AND S HEALTHCARE, published 2024).

Tests used:
Peptide_004 = target: T1, Peptide_004 (human); assay: peptide microarray, 1 ug/mL
T1 construct: 15-mer on microarray; not native form, recombinant insert region
T1 peptide: AADVHSQHHHHHHHH
Method: (§1) 5, 1, 0.2, 0.04, 0.008 and 0.0016 μg/mL serial dilutions were incubated on a single multi-well microarray slide at 30° C. for 1 hour. The slide includes 21 individual mini-arrays (one mini-array per sample dilution).
(§2) DyLight 650 was used as a label. False-positive binding to a peptide was evaluated by performing one additional control incubation in which only a secondary antibody was applied on the same microarray slide. Before performing each step, the microarrays were washed with a washing buffer.

Peptide_005 = target: T2, Peptide_005 (human); assay: peptide microarray, 1 ug/mL
T2 construct: 15-mer on microarray; not native form, recombinant insert region
T2 peptide: ADVHSQHHHHHHHHV
Method: as §1, §2

[1] = target: T3, human thioredoxin-1 (Trx1) (human, UniProt P10599 1-105); assay: one site - total fit (Prism) of the ELISA of panel (a); the cell has no unit, the concentrations of panel (a) are in nM; paragraph 183 prints it rounded as 1.1x10^-11 [b]
T3 construct: also called hTrx1; hTRX1
T3 sequence (looked up): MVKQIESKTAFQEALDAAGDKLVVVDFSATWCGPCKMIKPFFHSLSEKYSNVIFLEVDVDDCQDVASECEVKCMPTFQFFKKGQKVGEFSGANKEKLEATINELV
Method: 100 μl of a coating buffer and 100 ng of Trx1 were mixed and dispensed to each well, and then reacted at 4° C. for 16 hours or more. After the reaction solution was removed, 200 μl of PBSA was dispensed to each well and reacted at 37° C. for 120 minutes. […] After the reaction solution was removed, washing was performed by dispensing 200 μl of a washing buffer to each well. The above-described process was performed two times.
After the reaction solution was removed, washing was performed by dispensing 200 μl of a washing buffer to each well. The above-described process was performed three times.

Peptide_086 [2] = target: T4, Peptide_086 (human); assay: peptide microarray, 5 ug/mL
T4 construct: 15-mer of hTrx1 on microarray
T4 peptide: CEVKCMPTFQFFKKG
Method: as §1, §2

Peptide_024 [3] = target: T5, Peptide_024 (human); assay: peptide microarray, 5 ug/mL
T5 construct: 15-mer of hTrx1 on microarray
T5 peptide: SKTAFQEALDAAGDK
Method: as §1, §2

Peptide_015 [4] = target: T6, Peptide_015 (human); assay: peptide microarray, 5 ug/mL
T6 construct: 15-mer on microarray; not native form, includes recombinant insert region
T6 peptide: HHHHVKQIESKTAFQ
Method: as §1, §2

Peptide_094 [5] = target: T7, Peptide_094 (human); assay: peptide microarray, 5 ug/mL
T7 construct: 15-mer of hTrx1 on microarray
T7 peptide: FQFFKKGQKVGEFSG
Method: as §1, §2

Peptide_020 [6] = target: T8, Peptide_020 (human); assay: peptide microarray, 5 ug/mL
T8 construct: 15-mer of hTrx1 on microarray
T8 peptide: KQIESKTAFQEALDA
Method: as §1, §2

Peptide_093 [7] = target: T9, Peptide_093 (human); assay: peptide microarray, 5 ug/mL
T9 construct: 15-mer of hTrx1 on microarray
T9 peptide: TFQFFKKGQKVGEFS
Method: as §1, §2

Peptide_023 [8] = target: T10, Peptide_023 (human); assay: peptide microarray, 5 ug/mL
T10 construct: 15-mer of hTrx1 on microarray
T10 peptide: ESKTAFQEALDAAGD
Method: as §1, §2

Peptide_019 [9] = target: T11, Peptide_019 (human); assay: peptide microarray, 5 ug/mL
T11 construct: 15-mer of hTrx1 on microarray
T11 peptide: VKQIESKTAFQEALD
Method: as §1, §2

Peptide_014 [10] = target: T12, Peptide_014 (human); assay: peptide microarray, 5 ug/mL
T12 construct: 15-mer on microarray; not native form, includes recombinant insert region
T12 peptide: HHHHHVKQIESKTAF
Method: as §1, §2

Peptide_051 [11] = target: T13, Peptide_051 (human); assay: peptide microarray, 5 ug/mL
T13 construct: 15-mer of hTrx1 on microarray
T13 peptide: PCKMIKPFFHSLSEK
Method: as §1, §2

Peptide_092 [12] = target: T14, Peptide_092 (human); assay: peptide microarray, 5 ug/mL
T14 construct: 15-mer of hTrx1 on microarray
T14 peptide: PTFQFFKKGQKVGEF
Method: as §1, §2

Peptide_095 = target: T15, Peptide_095 (human); assay: peptide microarray, 1 ug/mL
T15 construct: 15-mer of hTrx1 on microarray
T15 peptide: QFFKKGQKVGEFSGA
Method: as §1, §2

Peptide_086 [13] = target: T4, Peptide_086; assay: peptide microarray, 1 ug/mL
Method: as §1, §2

Peptide_024 [14] = target: T5, Peptide_024; assay: peptide microarray, 1 ug/mL
Method: as §1, §2

Peptide_022 = target: T16, Peptide_022 (human); assay: peptide microarray, 1 ug/mL
T16 construct: 15-mer of hTrx1 on microarray
T16 peptide: IESKTAFQEALDAAG
Method: as §1, §2

Peptide_013 = target: T17, Peptide_013 (human); assay: peptide microarray, 1 ug/mL
T17 construct: 15-mer on microarray; not native form, includes recombinant insert region
T17 peptide: HHHHHHVKQIESKTA
Method: as §1, §2

Peptide_015 [15] = target: T6, Peptide_015; assay: peptide microarray, 1 ug/mL
Method: as §1, §2

Peptide_094 [16] = target: T7, Peptide_094; assay: peptide microarray, 1 ug/mL
Method: as §1, §2

Peptide_020 [17] = target: T8, Peptide_020; assay: peptide microarray, 1 ug/mL
Method: as §1, §2

Peptide_093 [18] = target: T9, Peptide_093; assay: peptide microarray, 1 ug/mL
Method: as §1, §2

Peptide_025 = target: T18, Peptide_025 (human); assay: peptide microarray, 1 ug/mL
T18 construct: 15-mer of hTrx1 on microarray
T18 peptide: KTAFQEALDAAGDKL
Method: as §1, §2

Peptide_023 [19] = target: T10, Peptide_023; assay: peptide microarray, 1 ug/mL
Method: as §1, §2

Peptide_012 = target: T19, Peptide_012 (human); assay: peptide microarray, 1 ug/mL
T19 construct: 15-mer on microarray; not native form, includes recombinant insert region
T19 peptide: HHHHHHHVKQIESKT
Method: as §1, §2

Peptide_019 [20] = target: T11, Peptide_019; assay: peptide microarray, 1 ug/mL
Method: as §1, §2

Peptide_018 = target: T20, Peptide_018 (human); assay: peptide microarray, 1 ug/mL
T20 construct: 15-mer on microarray; not native form, includes recombinant insert region; also called HVKQIESKTAFQEAL
T20 peptide: HVKQIESKTAFQEAL
Method: as §1, §2

Peptide_084 = target: T21, Peptide_084 (human); assay: peptide microarray, 1 ug/mL
T21 construct: 15-mer of hTrx1 on microarray
T21 peptide: SECEVKCMPTFQFFK
Method: as §1, §2

Peptide_014 [21] = target: T12, Peptide_014; assay: peptide microarray, 1 ug/mL
Method: as §1, §2

Peptide_051 [22] = target: T13, Peptide_051; assay: peptide microarray, 1 ug/mL
Method: as §1, §2

Peptide_092 [23] = target: T14, Peptide_092; assay: peptide microarray, 1 ug/mL
Method: as §1, §2

Peptide_021 = target: T22, Peptide_021 (human); assay: peptide microarray, 1 ug/mL
T22 construct: 15-mer of hTrx1 on microarray
T22 peptide: QIESKTAFQEALDAA
Method: as §1, §2

Peptide_045 = target: T23, Peptide_045 (human); assay: peptide microarray, 1 ug/mL
T23 construct: 15-mer of hTrx1 on microarray
T23 peptide: SATWCGPCKMIKPFF
Method: as §1, §2

Peptide_085 = target: T24, Peptide_085 (human); assay: peptide microarray, 1 ug/mL
T24 construct: 15-mer of hTrx1 on microarray
T24 peptide: ECEVKCMPTFQFFKK
Method: as §1, §2

B1: monoclonal antibody B266-1 (antibody, human IgG1)
light: QIVLTQSPAIMSASPGEKVTMTCSASSRISYMYWYQQKPGTSPKRWIYDTSKLASGVPARFSGSGSGTSYSLTISTMEAEDAATYYCHQRSSYPTFGAGTKLELKSVAAPSVFIFPPSDEQLKSGTASVVCLLNNFYPREAKVQWKVDNALQSGNSQESVTEQDSKDSTYSLSSTLTLSKADYEKHKVYACEVTHQGLSSPVTKSFNRGEC
heavy: not shown
notes: B266 with the Fc part changed to human IgG1; also called B266-1 (Trx1-hIgG1); B266-1 (hTrx1-hIgG1)
- signal (blank-control = 1) (Peptide_004): 2.71
- signal (blank-control = 1) (Peptide_005): 3.58
- Kd [1]: 0.0112 nM

B2: monoclonal antibody B264 (antibody, mouse IgG1, kappa, V domains shown)
VH: QVQLQQSGAELARPGASVKMSCKASGYTFTSYTMHWVKQRPGQGLEWIGYINPTSDYTNYNQKFKDKATLTADKSSSTAYMQLSSLTSEDSAVYFCASEGGFLYYFDYWGQGTTLTVSS
VL: DVLMTQTPLSLPVSLGDQASISCRSSQSIVHSNGNTYLEWYLQKPGQSPKLLIYKVSNRFSGVPDRFSGSGSGTDFTLKISRVEAEDLGVYYCFQGSHVPYTFGGGTKLEIKR
notes: also called AB264; B264 (Trx1-mIgG1)
- signal (blank-control = 1) (Peptide_086 [2]): 1.9
- signal (blank-control = 1) (Peptide_024 [3]): 6.09
- signal (blank-control = 1) (Peptide_015 [4]): 5.96
- signal (blank-control = 1) (Peptide_094 [5]): 4.13
- signal (blank-control = 1) (Peptide_020 [6]): 2.41
- signal (blank-control = 1) (Peptide_093 [7]): 6.18
- signal (blank-control = 1) (Peptide_023 [8]): 1.26
- signal (blank-control = 1) (Peptide_019 [9]): 1.98
- signal (blank-control = 1) (Peptide_014 [10]): 6.9
- signal (blank-control = 1) (Peptide_051 [11]): 4.28
- signal (blank-control = 1) (Peptide_092 [12]): 6.78
- signal (blank-control = 1) (Peptide_095): 3.52
- signal (blank-control = 1) (Peptide_086 [13]): 1.56
- signal (blank-control = 1) (Peptide_024 [14]): 6.5
- signal (blank-control = 1) (Peptide_022): 5.88
- signal (blank-control = 1) (Peptide_013): 4.05
- signal (blank-control = 1) (Peptide_015 [15]): 5.11
- signal (blank-control = 1) (Peptide_094 [16]): 3.26
- signal (blank-control = 1) (Peptide_020 [17]): 2.3
- signal (blank-control = 1) (Peptide_093 [18]): 5.33
- signal (blank-control = 1) (Peptide_025): 7.24
- signal (blank-control = 1) (Peptide_023 [19]): 1.19
- signal (blank-control = 1) (Peptide_012): 3.65
- signal (blank-control = 1) (Peptide_019 [20]): 1.67
- signal (blank-control = 1) (Peptide_018): 5.52
- signal (blank-control = 1) (Peptide_084): 3.26
- signal (blank-control = 1) (Peptide_014 [21]): 6.71
- signal (blank-control = 1) (Peptide_051 [22]): 3.91
- signal (blank-control = 1) (Peptide_092 [23]): 9.76
- signal (blank-control = 1) (Peptide_021): 2.48
- signal (blank-control = 1) (Peptide_045): 5.11
- signal (blank-control = 1) (Peptide_085): 3.56
